According to patent publication US20200095340A1:

B1: anti-DLL3 trispecific protein, DLL3 binder 4D011 (protein, part only; not given: CD3 binder and albumin binder, part only)
chain, part: EVQLVESGGGLVQPGGSLTLSCAASGSSVRFLSMAWYRQAPGKKRELVAGISVDGSTDYIDSVKGRFTISRDNAKNSVYLQMNSLRAEDTAVYYCYAYRWRTRYTYWGQGTLVTVSSGGGGSGGGSGGGGSGGGSHHHHHH
B2: anti-DLL3 trispecific protein, DLL3 binder 4H11-M34L (protein, part only; not given: anti-CD3 and anti-albumin domains, part only)
chain, part: EVQLVESGGGLVQPGGSLTLSCAASGSSVSRLSLAWYRQAPGKKRELVAGISVDGSTDYIDSVKGRFTISRDNAKNSVYLQMNSLRAEDTAVYYCYAYRWTTRLTYWGQGTLVTVSSGGGGSGGGSGGGGSGGGSHHHHHH
B3: anti-DLL3 trispecific protein, DLL3 binder 3A01 (protein, part only; not given: anti-CD3 fragment and anti-albumin sdAb, part only)
chain, part: EVQLVESGGGLVQPGGSLTLSCAASGSSVKFLSMAWYRQAPGKKRELVAGISADGSTDYIDSVKGRFTISRDNAKNSVYLQMNSLRAEDTAVYYCYAYRWTRRYTYWGQGTLVTVSSGGGGSGGGSGGGGSGGGSHHHHHH
B4: anti-DLL3 trispecific protein, DLL3 binder 3E01 (protein, part only; not given: anti-CD3 fragment and anti-albumin sdAb, part only)
chain, part: EVQLVESGGGLVQPGGSLTLSCAASGSSVKFLSMAWYRQAPGKKRELVAGISADGSTMYIDSVKGRFTISRDNAKNSVYLQMNSLRAEDTAVYYCYAYRWHTRYTYWGQGTLVTVSSGGGGSGGGSGGGGSGGGSHHHHHH
B5: anti-DLL3 trispecific protein, DLL3 binder 4B06 (protein, part only; not given: anti-CD3 fragment and anti-albumin domain, part only)
chain, part: EVQLVESGGGLVQPGGSLTLSCAASGSRVSFLSMAWYRQAPGKKRELVAGISADGSTDYFDSVKGRFTISRDNAKNSVYLQMNSLRAEDTAVYYCYAYRWTRRYTYWGQGTLVTVSSGGGGSGGGSGGGGSGGGSHHHHHH
B6: anti-DLL3 trispecific protein, DLL3 binder 1H08 (protein, part only; not given: CD3 binder and albumin binder, part only)
chain, part: EVQLVESGGGLVQPGGSLTLSCVASGSTFSINAMGWYRRAPGKQRELVAGISSDGSKVLADSVKGRFTISRDNAKNSVYLQMNSLRAEDTAVYYCYYFRLVSGSSMRYWGQGTLVTVSSGGGGSGGGSGGGGSGGGSHHHHHH
B7: anti-DLL3 trispecific protein, DLL3 binder 3G011 (protein, part only; not given: anti-CD3 fragment and anti-albumin sdAb, part only)
chain, part: EVQLVESGGGLVQPGGSLTLSCAASGSRVSFLSMAWYRQAPGKKRELVAGISADGSTGYIDSVKGRFTISRDNAKNSVYLQMNSLRAEDTAVYYCYAYRWATRYTYWGQGTLVTVSSGGGGSGGGSGGGGSGGGSHHHHHH
B8: anti-DLL3 trispecific protein, DLL3 binder 3D08 (protein, part only; not given: anti-CD3 fragment and anti-albumin sdAb, part only)
chain, part: EVQLVESGGGLVQPGGSLTLSCAASGSSVRFLSMAWYRQAPGKKRELVAGISANGSTDYIDSVKGRFTISRDNAKNSVYLQMNSLRAEDTAVYYCYAYRWTNRYTYWGQGTLVTVSSGGGGSGGGSGGGGSGGGSHHHHHH
B9: anti-DLL3 trispecific protein, DLL3 binder 2E08 (protein, part only; not given: anti-CD3 fragment and anti-albumin sdAb, part only)
chain, part: EVQLVESGGGLVQPGGSLTLSCVASGSRSSINAMGWYRRAPGKQRELVAGISADGSKVYADSVKGRFTISRDNAKNSVYLQMNSLRAEDTAVYYCYYFRTQSGSSMRYWGQGTLVTVSSGGGGSGGGSGGGGSGGGSHHHHHH
B10: anti-DLL3 trispecific protein, DLL3 binder 4H06 (protein, part only; not given: anti-CD3 and anti-albumin domains, part only)
chain, part: EVQLVESGGGLVQPGGSLTLSCAASGRSVSFLSMAWYRQAPGKKRELVAGISADGSTIYIDSVKGRFTISRDNAKNSVYLQMNSLRAEDTAVYYCYAYRWTTRYTYWGQGTLVTVSSGGGGSGGGSGGGGSGGGSHHHHHH
B11: anti-DLL3 trispecific protein, DLL3 binder 2H08 (protein, part only; not given: anti-CD3 fragment and anti-albumin domain, part only)
chain, part: EVQLVESGGGLVQPGGSLTLSCVASGSTSSINAMGWYRRAPGKQRELAAGISKDGSKVYADSAKGRFTISRDNAKNSVYLQMNSLRAEDTAVYYCYYFRTVSGSSSRYWGQGTLVTVSSGGGGSGGGSGGGGSGGGSHHHHHH
B12: anti-DLL3 trispecific protein, DLL3 binder 4B05 (protein, part only; not given: anti-CD3 fragment and anti-albumin domain, part only)
chain, part: EVQLVESGGGLVQPGGSLTLSCAASGSRVSFLSMAWYRQAPGKKRELVAGISADGHTDYIDSVKGRFTISRDNAKNSVYLQMNSLRAEDTAVYYCYAYRWTTRYTHWGQGTLVTVSSGGGGSGGGSGGGGSGGGSHHHHHH
B13: anti-DLL3 trispecific protein, DLL3 binder 4G07 (protein, part only; not given: anti-CD3 fragment and anti-albumin domain, part only)
chain, part: EVQLVESGGGLVQPGGSLTLSCAASGSSVSFLSVAWYRQAPGKKRELVAGISANGSTDYIDSVKGRFTISRDNAKNSVYLQMNSLRAEDTAVYYCYAYRWTNRYTYWGQGTLVTVSSGGGGSGGGSGGGGSGGGSHHHHHH
B14: anti-DLL3 trispecific protein, DLL3 binder 3G02 (protein, part only; not given: CD3 binder and albumin binder, part only)
chain, part: EVQLVESGGGLVQPGGSLTLSCAASGSSVSFLSMAWYRQAPGKKRELVAGISADGRTDYIDSVKGRFTISRDNAKNSVYLQMNSLRAEDTAVYYCYAYRWRTRYTYWGQGTLVTVSSGGGGSGGGSGGGGSGGGSHHHHHH
B15: anti-DLL3 trispecific protein, DLL3 binder 3E03 (protein, part only; not given: CD3 binder and albumin binder, part only)
chain, part: EVQLVESGGGLVQPGGSLTLSCAASGSSVRFLSMAWYRQAPGKKRELVAGISGDGSTDYIDSVKGRFTISRDNAKNSVYLQMNSLRAEDTAVYYCYAYRWMTRYTYWGQGTLVTVSSGGGGSGGGSGGGGSGGGSHHHHHH
B16: anti-DLL3 trispecific protein, DLL3 binder 2F08 (protein, part only; not given: anti-CD3 fragment and anti-albumin domain, part only)
chain, part: EVQLVESGGGLVQPGGSLTLSCVASGSKSSINAMGWYRRAPGKQRELPAGISSNGTKVYADSAKVRFTISRDNAKNSVYLQMNSLRAEDTAVYYCYYFRTVLGTSMRYWGQGTLVTVSSGGGGSGGGSGGGGSGGGSHHHHHH
B17: anti-DLL3 trispecific protein, DLL3 binder 4G03 (protein, part only; not given: CD3 binder and albumin binder, part only)
chain, part: EVQLVESGGGLVQPGGSLTLSCAASGSSVKFLSMAWYRQAPGKKRELVAGISADGSTDYIHSVKGRFTISRDNAKNSVYLQMNSLRAEDTAVYYCYAYRWTRRYTYWGQGTLVTVSSGGGGSGGGSGGGGSGGGSHHHHHH
B18: anti-DLL3 trispecific protein, DLL3 binder 3B09 (protein, part only; not given: CD3 binder and albumin binder, part only)
chain, part: EVQLVESGGGLVQPGGSLTLSCAASGSHVSFLSMAWYRQAPGKKRELVAGISANGSTDYIDSVKGRFTISRDNAKNSVYLQMNSLRAEDTAVYYCYAYRWTTRYAYWGQGTLVTVSSGGGGSGGGSGGGGSGGGSHHHHHH
B19: anti-DLL3 trispecific protein, DLL3 binder 4H01 (protein, part only; not given: CD3 binder and albumin binder, part only)
chain, part: EVQLVESGGGLVQPGGSLTLSCAASGSSVSFLSMAWYRQAPGKKRELVAGISANGSTDYYDSVKGRFTISRDNAKNSVYLQMNSLRAEDTAVYYCYAYRWRTRYTYWGQGTLVTVSSGGGGSGGGSGGGGSGGGSHHHHHH
B20: anti-DLL3 trispecific protein, DLL3 binder 3B04 (protein, part only; not given: CD3 binder and albumin binder, part only)
chain, part: EVQLVESGGGLVQPGGSLTLSCAASGSNVSFLSMAWYRQAPGKKRELVAGISARGSTDYIDSVKGRFTISRDNAKNSVYLQMNSLRAEDTAVYYCYAYHWTTRYTYWGQGTLVTVSSGGGGSGGGSGGGGSGGGSHHHHHH
B21: anti-DLL3 trispecific protein, DLL3 binder 4A08 (protein, part only; not given: CD3 binder and albumin binder, part only)
chain, part: EVQLVESGGGLVQPGGSLTLSCAASGSSVSFLSMAWYRQAPGKKRELVAGISADGSTNYIDSVKGRFTISRDNAKNSVYLQMNSLRAEDTAVYYCYAYRWRTRYTYWGQGTLVTVSSGGGGSGGGSGGGGSGGGSHHHHHH
B22: anti-DLL3 trispecific protein, DLL3 binder 1C08 (protein, part only; not given: CD3 fragment and albumin sdAb, part only)
chain, part: EVQLVESGGGLVQPGGSLTLSCVASGSTSRINAMGWYRRAPGKQRELPAGISSDGSKVYAVSVKGRFTISRDNAKNSVYLQMNSLRAEDTAVYYCYYFRTVSGSPMRYWGQGTLVTVSSGGGGSGGGSGGGGSGGGSHHHHHH
B23: anti-DLL3 trispecific protein, DLL3 binder 4D03 (protein, part only; not given: anti-CD3 fragment and anti-albumin domain, part only)
chain, part: EVQLVESGGGLVQPGGSLTLSCAASGSSVRFLSMAWYRQAPGKKRELVAGISATGSTDYIDSVKGRFTISRDNAKNSVYLQMNSLRAEDTAVYYCYAYRWTRRYTYWGQGTLVTVSSGGGGSGGGSGGGGSGGGSHHHHHH
B24: anti-DLL3 trispecific protein, DLL3 binder 1G06 (protein, part only; not given: anti-CD3 fragment and anti-albumin sdAb, part only)
chain, part: EVQLVESGGGLVQPGGSLTLSCVASGSTSSINAIGWYRRAPGKQRELVAGISSDGSKVYAVSVKGRFTISRDNAKNSVYLQMNSLRAEDTAVYYCYYFRKVSGSSARYWGQGTLVTVSSGGGGSGGGSGGGGSGGGSHHHHHH
B25: anti-DLL3 trispecific protein, DLL3 binder 4D02 (protein, part only; not given: CD3 fragment and albumin sdAb, part only)
chain, part: EVQLVESGGGLVQPGGSLTLSCAASGSKVSFLSMAWYRQAPGKKRELVAGISARGSTDYIDSVKGRFTISRDNAKNSVYLQMNSLRAEDTAVYYCYAYQWTTRYTYWGQGTLVTVSSGGGGSGGGSGGGGSGGGSHHHHHH
B26: anti-DLL3 trispecific protein, DLL3 binder 1F08 (protein, part only; not given: anti-CD3 fragment and anti-albumin sdAb, part only)
chain, part: EVQLVESGGGLVQPGGSLTLSCVASGSTSSINAMAWYRRAPGKQRELVAGISSDGSKVYKDSVKGRFTISRDNAKNSVYLQMNSLRAEDTAVYYCYYFRNVSGSSMRYWGQGTLVTVSSGGGGSGGGSGGGGSGGGSHHHHHH
B27: anti-DLL3 trispecific protein, DLL3 binder 3D09 (protein, part only; not given: anti-CD3 fragment and anti-albumin domain, part only)
chain, part: EVQLVESGGGLVQPGGSLTLSCAASGSSVSRLSMAWYRQAPGKKRELVAGISANGSTTYIDSVKGRFTISRDNAKNSVYLQMNSLRAEDTAVYYCYAYRWTTRYRYWGQGTLVTVSSGGGGSGGGSGGGGSGGGSHHHHHH
B28: anti-DLL3 trispecific protein, DLL3 binder 4A04 (protein, part only; not given: CD3 binder and albumin binder, part only)
chain, part: EVQLVESGGGLVQPGGSLTLSCAASGSRVSFLSMAWYRQAPGKKRELVAGISARGSTDYIDSVKGRFTISRDNAKNSVYLQMNSLRAEDTAVYYCYAYRWSTRYTYWGQGTLVTVSSGGGGSGGGSGGGGSGGGSHHHHHH
B29: anti-DLL3 trispecific protein, DLL3 binder 1F09 (protein, part only; not given: CD3 binder and albumin binder, part only)
chain, part: EVQLVESGGGLVQPGGSLTLSCVASGNTSSINAMGWYRRAPGKQRELVAGISSNGSKVYADSVKGRFTISRDNAKNSVYLQMNSLRAEDTAVYYCYYFRTVTGSSMRYWGQGTLVTVSSGGGGSGGGSGGGGSGGGSHHHHHH
B30: anti-DLL3 trispecific protein, DLL3 binder 4H05 (protein, part only; not given: anti-CD3 fragment and anti-albumin sdAb, part only)
chain, part: EVQLVESGGGLVQPGGSLTLSCAASGSSVSRLSMAWYRQAPGKKRELVAGISARGSTDYIDSVKGRFTISRDNAKNSVYLQMNSLRAEDTAVYYCYAYRWTTRSTYWGQGTLVTVSSGGGGSGGGSGGGGSGGGSHHHHHH

What follows are binders tested against human DLL3 on DMS-153 cells (human) (UniProt Q9NYJ7) (assay: cell-based or functional assay).
Chain of human DLL3 on DMS-153 cells (human) (Q9NYJ7 27-618 limits assumed): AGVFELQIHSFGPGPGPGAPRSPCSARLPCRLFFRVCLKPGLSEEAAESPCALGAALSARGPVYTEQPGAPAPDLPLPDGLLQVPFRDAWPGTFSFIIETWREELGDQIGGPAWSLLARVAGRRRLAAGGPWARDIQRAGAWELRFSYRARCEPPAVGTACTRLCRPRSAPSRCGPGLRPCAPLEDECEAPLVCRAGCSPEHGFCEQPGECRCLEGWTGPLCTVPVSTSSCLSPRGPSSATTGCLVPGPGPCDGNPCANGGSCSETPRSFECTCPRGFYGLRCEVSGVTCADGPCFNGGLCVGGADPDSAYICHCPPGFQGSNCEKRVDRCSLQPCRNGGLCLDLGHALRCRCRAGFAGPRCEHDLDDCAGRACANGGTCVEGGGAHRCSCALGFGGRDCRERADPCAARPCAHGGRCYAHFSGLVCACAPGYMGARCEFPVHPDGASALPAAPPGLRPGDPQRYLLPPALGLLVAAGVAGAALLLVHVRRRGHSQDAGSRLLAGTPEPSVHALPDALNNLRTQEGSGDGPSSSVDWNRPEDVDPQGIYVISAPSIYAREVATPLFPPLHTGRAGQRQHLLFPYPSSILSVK
For B1, the TDCC EC50 (CHO expressed, purified protein; method of Example 2, DMS-153 cells) was 0.098 nM.
Work on B2 yielded a TDCC EC50 (CHO expressed, purified protein; method of Example 2, DMS-153 cells) of 0.13 nM.

Each binder was assayed against biotinylated human DLL3 protein expressed as a human IgG1 fusion protein (human) (UniProt Q9NYJ7) (assay: Octet, biotinylated human DLL3-IgG1 fusion on streptavidin tips, single 50 nM, conditioned medium (relative KD)).
Chain of biotinylated human DLL3 protein expressed as a human IgG1 fusion protein (human) (Q9NYJ7 27-492): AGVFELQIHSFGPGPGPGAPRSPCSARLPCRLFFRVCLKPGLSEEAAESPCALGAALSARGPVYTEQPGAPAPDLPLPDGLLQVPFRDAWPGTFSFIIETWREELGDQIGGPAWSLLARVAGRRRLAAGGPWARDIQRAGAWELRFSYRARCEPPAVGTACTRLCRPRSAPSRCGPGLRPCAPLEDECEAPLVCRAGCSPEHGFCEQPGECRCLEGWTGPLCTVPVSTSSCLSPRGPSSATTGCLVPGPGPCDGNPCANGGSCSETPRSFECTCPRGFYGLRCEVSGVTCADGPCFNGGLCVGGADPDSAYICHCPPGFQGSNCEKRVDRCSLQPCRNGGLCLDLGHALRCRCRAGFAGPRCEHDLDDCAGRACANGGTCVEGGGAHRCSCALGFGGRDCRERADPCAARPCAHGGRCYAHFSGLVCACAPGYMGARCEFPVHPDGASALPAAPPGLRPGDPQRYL
B3 gave a Kd of 16 nM.
With B4 the Kd was 16 nM.
For B5, the Kd was 16 nM.
Work on B6 yielded a Kd of 17 nM.
Binder B7 has a Kd of 17 nM.
B8 gave a Kd of 17 nM.
With B9 the Kd was 17 nM.
B10 was tested, and the Kd was 18 nM.
B11 was tested, and the Kd was 18 nM.
With B12 the Kd was 18 nM.
Binder B13 has a Kd of 18 nM.
Binder B14 has a Kd of 20 nM.
Work on B15 yielded a Kd of 20 nM.
For B16, the Kd was 20 nM.
B17 gave a Kd of 20 nM.
Binder B18 has a Kd of 20 nM.
With B19 the Kd was 21 nM.
For B20, the Kd was 24 nM.
With B21 the Kd was 24 nM.
B22 showed a Kd of 25 nM.
Binder B23 has a Kd of 26 nM.
B24 was tested, and the Kd was 26 nM.
With B25 the Kd was 30 nM.
B26 showed a Kd of 31 nM.
B27 showed a Kd of 32 nM.
B28 was tested, and the Kd was 35 nM.
Work on B29 yielded a Kd of 35 nM.
B30 was tested, and the Kd was 64 nM.
